Results taken from patent US20160228546A1 (CYTOMX THERAPEUTICS, published 2016).

molecular target: T1, anti-VEGF scFv AB; assay: FACS, peptide displayed on E. coli
T1 construct: VL-linker-VH designed from ranibizumab; also called anti-VECF scFv
T1 sequence (scFv, as listed by the source): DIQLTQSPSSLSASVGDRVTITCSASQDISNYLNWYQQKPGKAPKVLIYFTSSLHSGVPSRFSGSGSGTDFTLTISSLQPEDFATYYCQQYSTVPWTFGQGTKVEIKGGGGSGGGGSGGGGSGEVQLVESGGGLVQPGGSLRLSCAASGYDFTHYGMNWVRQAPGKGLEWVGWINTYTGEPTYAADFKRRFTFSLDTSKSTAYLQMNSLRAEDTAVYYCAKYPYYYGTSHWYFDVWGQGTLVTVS

| binding result | Binder |
| --- | --- |
| binds | GAMACYNIFEYWCSAMK (also called 315MM) [JS315] |
| binds | VHAWEQLVIQELYHC (also called 311MM) [JS311] |

The remaining lines, values behind:

| Binder | binding result |
| --- | --- |
| GVGLCYTILEQWCEMGR (also called 313MM) [JS313] | binds |
| GHGMCYTILEDHCDRVR (also called 292MM) [JS292] | binds |
| ATAVWNSMVKQSCYMQG (also called 283MM) [JS283] | binds |

molecular target: T2, anti-VEGF IgG antibody (DyLight-labelled in the FACS analyses.); assay: FACS of eCPX3.0 clones at 3 concentrations of DyLight labeled anti-VEGF
T2 construct: It was DyLight-labelled in the FACS analysis; also called anti-VEGF antibody; DyLight labeled anti-VEGF
T2 sequence (VH, as listed by the source limits assumed, chain 1 of 2): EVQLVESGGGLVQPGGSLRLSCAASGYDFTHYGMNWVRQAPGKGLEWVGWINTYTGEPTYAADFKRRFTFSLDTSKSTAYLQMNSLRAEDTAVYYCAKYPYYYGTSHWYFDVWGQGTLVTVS
T2 sequence (VL, as listed by the source limits assumed, chain 2 of 2): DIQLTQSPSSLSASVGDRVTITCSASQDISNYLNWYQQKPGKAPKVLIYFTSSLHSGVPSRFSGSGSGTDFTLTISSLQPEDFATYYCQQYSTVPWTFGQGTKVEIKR

| fold higher affinity than 306P | Binder |
| --- | --- |
| ≥ 10 fold | PCSKWESMVLQSCYFG [JS1829] |
| ≥ 10 fold | SCTAWQSMVEQRCYFG [JS1825] |
| ≥ 10 fold | PCSAWQSMVEQRCYFG [JS1827] |

molecular target: T2, anti-VEGF IgG antibody; assay: method not stated

| Kd | Binder |
| --- | --- |
| > 600 nM | PCSEWQSMVQPRCYYGG [JS306] |
